The values that follow come from article doi:10.1101/2022.05.24.493251.

T1: Npl3 RRM1 (Saccharomyces cerevisiae, UniProt Q01560 114-201)
T1 sequence: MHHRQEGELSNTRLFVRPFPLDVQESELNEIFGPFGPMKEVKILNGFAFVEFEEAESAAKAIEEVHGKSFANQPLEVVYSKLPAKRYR

For this series, the target named is T1, Npl3 RRM1. The series can be described thus: NMR titration.
GGGGGG (ssDNA) [polyG 6mer]: the binding result was “no binding”.
Turning to CCCCCC (ssDNA) [polyC 6mer], the binding result was “binds”.
Under TTTTTT (ssDNA) [polyT 6mer] stands “no binding”; under AAAAAA (ssDNA) [polyA 6mer], “no binding”.
